Reference: the nanobody polyreactivity screen of Harvey et al. (2022)

Assay: yeast display, Sf9 membrane polyspecificity reagent, FACS + sequencing; frameworks hold sequencing errors
Method in brief: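 Using colony PCR, genes from sorted yeast display clones were amplified, then sequenced on MiSeq at 2 × 250 and filtered by CDR length. The clones had been stained with 10% biotinylated, detergent-solubilized Sf9 membrane reagent for 1 hour at 4 °C and sorted by FACS into low and high (top ~1%) gates on anti-HA and streptavidin fluorescence. Polyreactivity labels come from the gate of origin.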

Sequence	polyreactivity (PSR sort gate)
QVQLVESGGGLVQAGGSLRLSCAASGSTLRYNTMGWYRQAPGTERELVAAIRGSGSSTYYADSVKGRFTISRDNAKNTVYLQMNSLKPEDTAVYYCAARPRWYTYTRQEYDYWGQGTQVTVSS	high polyreactivity
QVQLVESGGGLVQAGGSLRLSCAASGLIFYPYAMGWYRQAPGKERELVAAISSGGSTNYADSVKGRFTISRDNAKNTVYLQMNSLKPEDTAVYYCAKRYPSFRGYGSFRYSGRKYWGQGTQVTVSS	high polyreactivity
QVQLVESGGGLVQAGGSLRLSCAASGFTFRWYAMGWYRQAPGKERELVASISRRGGSTYYADSVKGRFTISRDNAKNTVYLQMNSLKPEDTAVYYCAADYYDYWGQGTQVTVSS	high polyreactivity
QVQLVESGGGLVQAGGSLRLSCAASGGTFLVNAMGWYRQSPGKEREWVATITARVASTYYADSVTGRFTISRDNAKNTVYLQMNTLKPEDTAVYYCAARKVWGYTYGYPYYYWGQATQVTVSS	high polyreactivity
QVQLVESGGGLVQAGGSLRLSCAASGSTFPTYAMGWYRQAPGKERELVAAITRGGRTYYADSVKGRFTISRDNAKNTVYLQMNSLKPEDTAVYYCAAVYYGAAQYNYWGQGTQVTVSS	high polyreactivity
QVQLVESGGGLVQAGGSLRLSCAASGFTFSWYTMGWYRQAPGKERELVAAITSGGSTNYADSVKGRFTISRDNAKNTVYLQMNSLKPEDTAVYYCNAYWSYSISGYDYWGQGTQVTVSS	low polyreactivity
QVQLVESGGGLVQAGGSLRLSCAASGIIFRVYAMGWYRQAPGKERELVAAITKGGGRTYYADSVKGRFTISRDNAKNTVYLQMNSLKPEDTAVYYCAARSSSSFEYWGQGTQVTVSS	high polyreactivity
QVQFVESGGGLVQAGGSLRLSCAASGFTFVWYDMGWYRQAPGKERELVAAISSGGSTYYADSVKGRFTISRDNAKNTVYLQMNSLKPEDTAVYYCAVYTGYYNYIYQYDYWGQGTQVTVSS	low polyreactivity
QGQLVESGGGLVQAGGSLRLTCPPSGFTFRTNAMGWYRQAPGKERELVAAISYSGGSTYYADSVKGRFTISRDNAKNTVYFQMNSLKPEDTAVSYCAARAAGSQHDYWGQGSQVTVSS	high polyreactivity
QVQLVESGGGLVQAGGSLRLSCAASGITFYVYAMGWYRQAPGKERELVAAISGSGGNTYYADSVKGRFTISRDNAKNTVYVQMNSLKPEDTAVYYCNADDHSPYYCDLDYWGQGTQVTVSS	low polyreactivity
QVQLVESGGGLVQAGGSLRLSCAASGGIFEAYVMGWYRQAPGKERELVAAISFRGGSTYYADSVKGRFTISRDNAKNTVYLQMNSLKPEDTAVYYCAADYRHQGYDYWGLGTQVTVSS	low polyreactivity
QVQLQESGGGQVQAGGSLRQSCAASGSIFQATYMGWDRQAPSKEREFVASITYGSITNYADSVKGRFTIGRDNAKDTWYLQMNSLKPEDAAVYYCAVDRHYIPAFHYWGQGTQVNVSS	low polyreactivity
QVHLVESGGGLVQAGGSRRLSCAASGITYRFYTMGWYRQAPGKEREFVAAITYGVGRTDYADSVKGRFTISRDNAKNTVYLQMNSLNPEDTAVYYCAATWGYGYDYWGQGTQVTVSS	high polyreactivity
QVQLQESGGGLVQAGGSLRLSCAASGSIFHLHIMCWYRQAPGKERESVAAISYGTSTYYADSVKGRFTICRDNAKNTVYLKMNSPKPDDTAVYYCAALFLVSKHHHYWGEGTQVTVSS	low polyreactivity
QVQLVESGGGLVQAGGSLRLSCAASGSTFPPYAMGWYRQAPGKERELVADITRRGASTYYADSVKGRFTISRDNAKNTDYLQMNSLKPEDTAVYYFAAGPYVGQRWYRYNYDYWGQGTQVTVSS	high polyreactivity
QVQLVESGGGLVQAGGSLRLSCAASGFTFGPYAMGWYRQAPGKERELVAGITWSGASTYYADSVKGRFTISRDNAKNTVYLQMNSLKPEDTAVYYCARYYRLGSRYDYWGQGTQVTVSS	low polyreactivity
QVQLVESGGGLVQAGGSLRLSCAASGFTFATYTIGWYRPAPGKERELVAAISWSGGSTYYADSVKGRFTISRDNAKNTVYLQMNSLKPEDTAFYYCAAQRPSALRLYSSQRTIFGYWGQGTQVTVSS	high polyreactivity
QVQLVESGGGLVQAGGSLRLSCAASGFIFDRNTMGWYRQAPGKERELVATISSTGTTNYADSVKGRFTISRDNAKNTVYLQMNSLKPEDTAVYYCNAYPRWRYVSYYRSYRYDYWGQGTQVTVSS	high polyreactivity
QVQLVESGGGLVQAGGSLRLSCAASGFILRYNAMGWYRQAPGKEREFVAAITRGATTTYADSVKGRFTISRDNAKNTVYLQMNRLKPEDTAVYYCAKRYHGYISQGQLWERIYDYWGQGTQVTVSS	low polyreactivity
QVQLVESGGGLVQAGGSLRLSCAASGRIFPDYDMGWYRQAPGKERELVAAITQRGGSTYADSVKGRFTISRDNAKNTVYLQMNSLKPEDTSVYYCAREYYEGYEYWGQGTQVTVSS	low polyreactivity
QVQLVESGGGLVQAGGSLRLSCAASGRIFSWYAMGWYRQAPGKERELVAAITVRGSTYYADSVKGRFTISRDNAKNTVYLQMNSLKPEDTAVYYCAAKSSRYAYDYWGQGTQVTVSS	low polyreactivity
QVQLVESGGGLVQAGGSLRLSCAASGSIFSQNAMGWYRQAPGKEREFVAAIRWSAGSTYYADSVKGRFTISRDNAKNTVYLQMNSLKPEDTAVYYCNAALNVSGHYPNDYWGQGTQVTVSS	low polyreactivity

Sequence	polyreactivity (PSR sort gate)
QVQLVESGGGLVQAGGSLRLSCAASGRIITYNAMGWYRQAPGKERELVAAISTTGGRTYYADSVKGRFTISRDNAKNTVYLQMNSLKPEDTAVYYCNAVLKRPLAYHVTYDYWGQGTQVTVSS	high polyreactivity
QVQLVESGGGLVQAGGSLRLSCAASGIIFSDYAMGWYRQAPGKERELVAAISRNGGSTYYADSVKGRFTISRDNAKNTVYLQMNSLKPEDTAVYYCAATRRYRYNWGQGTQVTVSS	high polyreactivity
QVQLVESGGGLVQARGSLRLSCAASGFGWYAMGWYRQAPGKEREFVAAISRGGGSTYYADSVKGRFTISRDNAKNTVYLQMNSLKQEDTAVYYCAAVYYRRISQGDTQTYYQYNYWGQGTKVTVSS	high polyreactivity
QVQLVESGGGLFQAGGSLRLSCAASGRTFSHNGMGWYRQAPGKERELVATINRGGNTYYADSVKGRFTISRDNAKNTVYLQMNSLKPEDTAVYYCAARRSFLFDEGNYWGQGTQVTVSS	low polyreactivity
QVQLVESVGGLVQAGGSLRLSCAASGRTFGRYAMGWYRKAPGKERELVAAINRGGSTKYADSVKGRFTISRDNAKNTVYFQMNSLKPEDTAVDYCAKDRHPALHYDYWGQGTQVTVSS	low polyreactivity
QVQLVESGGGLVKAGGSLRLSCAASGRTLRSYDMGWYRQAPGKEREVVAAITRTGGDTYYADSVKGRFTISRDNAKNTVYLQMNRLKPDDTAVYYCAAQRYRGYDYWGQGTQVTVSS	high polyreactivity
QVQLVESGGGLVQAGGSLRLSCAASGSTFYGNAMGWYRQATGKERELVAAIRWRGGRTYYADSVKGRFTISRDNAKNTVYLQMNSLKPEDTAVYYCNALPGVSHTQYDRVGYWGQGTQVTVSS	high polyreactivity
QVQLVESGGGLVQAGGSLRLSCAASGSTFYYNAMGWYRQAPGKEREFVAGITSSGAGTYYADSVKGRFTISRDNAKNTVYLQMNSLKPEDTAVYYCAAVYRWEGRTYRYGYWGQGTQVTVSS	high polyreactivity
QVQLVESGGGLVQAGGSLRLSWAASGSIFGNAMGWYRQAPGKEREFVAAISSSGSSTYYADSVKGRFTISRDNAKNTVYLQMNSLKPEDTAVYYCAKRRRSAAPKYDYWGQGTHVTVSS	high polyreactivity
QVQLVESGGGLVQAGGSLRLSCAASGRTFYSYAMGWYRQAPGKERELVAAINSGGDTYYADSVKGRFTISRDNAKNSVYLQMNSLKAEDSAVYYCAADYYWEMDSWGQGTQVTVSS	low polyreactivity
QDQLVESGGGLVQAGASRRLRCAASGSIFGRNTMGWYRQAPGKESELVAAISSGGRTYYADSVKGRFTISRDNAKYTVFLQMNSLKPEDTAVYYCAAALRRRRADFDYWGQGTQVTVSS	high polyreactivity
QVQLVESGGGLVQAGGSLRLSCAASGFTFAHNAMGWYRQAPGKERELLAAISSRGGRTFYADSVKGRFTISRDNAKNTVYLQMNSLKPEDTAVYYCNRVRSVTPSPRYYYWGQGTQVTVSS	high polyreactivity
QVQLVESGGGLVQAGGSLRLSCAASGRTFTRYAMGWYRQAPGKERELVASISNGGNTYYADSVKGRFTISRDYAKNTVYLQMNSLKPEDTAVYYCAAKWKNSRPDWRGYWGQGTQVTVSS	high polyreactivity
QGQLVESGGGLVQAGGSLRLSCAASGFIFRYYTMGWYRQAPGKERELVATITSGGSTYYADSVKGRFTISRDNAKNTVYLQMNSLKPEDTAVYYCNADTLGGKYVYQDRRGFDYWGQGTQVSVSS	high polyreactivity
QVQLVESGGGLVQAGGSLRLSCAPSGFTFSPYTMGWYRQAPGKETELVATIRYDGTSTYYADSVKGRFTISRDNAKNTVYLQMNSLKPEDTAVYYCNADGSAQDIAELDYWGQGTQVTVSS	low polyreactivity
QVQLVESGGGLVQAGGSLRLSCAASGRTFSGNTMGWYRQAPGKERELVAAITGRGGSTYYADSVKGRFTISRDNAKNTVYLQMNSLKPEDTAVYYCAALRYTFAGRFDYWGQGTQVTVSS	high polyreactivity
QVQLVESGGGLVQAGGSLRLSCAASGSIFGIYAMGWYRQAPGKERELVAAISGSGGDTYYADSVKGRFTISRDNAKNTVYLQMNSLKPEDTAVYYCAATTGAAYPFDYWGQGTQVTVSS	low polyreactivity
QVQLVESGGGLVQAGGSLRLSCAASGRTFKLYAMGWYRQAPGKESELVAAISRSGGSTYYADSVKGRFTISRDNAKNTVYLQMKSLKPEDTAVYYCNRRQGYHGDYDYWGQGTQVTVSS	high polyreactivity
QVQLVESGGCLVKAGGSLRLSCAASGSTFSDNAIGWSRQAPGKERELVAAINYSDGSTNYADSVKGRFTISRDNAKNTVYLQINSQQPEDTAVYYCAVDIYFWSYGWWGPYDYWGQGTQVTVSS	low polyreactivity
QGQLVVSGGGLVQAGGSLRLSCAASGSILTRNAMGWYRQAPGKEMELVAAITGSGGRTYYADSVKGRFTISRDNAKKTFYLQMKSLKPEDTAVYYCATRYGREDYWGQGTQVNVSS	high polyreactivity
QVQLVESGGGLVQAGGSLRLSCAASGRTFYRNTMGWYRQAPGKEREFVAAISATAGRTYYADSVKGRFTISRDNAKNTVYLQMNSLKPEDTAVYYCAAVPLRNRWPNSWPALDYWGQGTQVTVSS	high polyreactivity
